In patent publication US20080050374A1 (AMBRX, published 2008):

B1: pAcF-scFv-108-(S136) (scFv)
scFv: QVQLQQSGAELMKPGASVKISCKATGYTFSSYWIEWVKQRPGHGLEWIGEILPGSKKTNYNEKFKGKATFTADTSSNTAYMQFSSLTSEDSAVYYCARYYYRNDDYGMDYWGQGTSVTVSSGGGGSGGGGSGGGGXGGGGSEIHMTQTTSSLSASLGDRVTISCSASQDIRNYLNWYQQKPDGTVKLLIYYTSTLHSGVPSRFSGSGSGTDYSLTISNLEPEDIATYYCQQYSKIPYTFTGGTKLEIKRADAAEQKLISEEDLNSAVDHHHHHH
modifications: p-acetyl-phenylalanine (pAcF) in place of Ser136
notes: X stands for pAcF; also called Ser136pAcF; pAcF-scFv-(S136)
B2: pAcF-scFv-108-(L156) (scFv)
scFv: QVQLQQSGAELMKPGASVKISCKATGYTFSSYWIEWVKQRPGHGLEWIGEILPGSKKTNYNEKFKGKATFTADTSSNTAYMQFSSLTSEDSAVYYCARYYYRNDDYGMDYWGQGTSVTVSSGGGGSGGGGSGGGGSGGGGSEIHMTQTTSSLSASXGDRVTISCSASQDIRNYLNWYQQKPDGTVKLLIYYTSTLHSGVPSRFSGSGSGTDYSLTISNLEPEDIATYYCQQYSKIPYTFTGGTKLEIKRADAAEQKLISEEDLNSAVDHHHHHH
modifications: p-acetyl-phenylalanine (pAcF) in place of Leu156
notes: L156 lies in the VL chain; X stands for pAcF; also called Leu156pAcF
B3: scFv-108 wild type (periplasmic, VH-(GGGGS)4-VL-myc-6xHis) (scFv)
scFv: QVQLQQSGAELMKPGASVKISCKATGYTFSSYWIEWVKQRPGHGLEWIGEILPGSKKTNYNEKFKGKATFTADTSSNTAYMQFSSLTSEDSAVYYCARYYYRNDDYGMDYWGQGTSVTVSSGGGGSGGGGSGGGGSGGGGSEIHMTQTTSSLSASLGDRVTISCSASQDIRNYLNWYQQKPDGTVKLLIYYTSTLHSGVPSRFSGSGSGTDYSLTISNLEPEDIATYYCQQYSKIPYTFTGGTKLEIKRADAAEQKLISEEDLNSAVDHHHHHH
notes: also called WT scFv
B4: pAcF-scFv-108-(S131) conjugated to 5K PEG (scFv)
scFv: QVQLQQSGAELMKPGASVKISCKATGYTFSSYWIEWVKQRPGHGLEWIGEILPGSKKTNYNEKFKGKATFTADTSSNTAYMQFSSLTSEDSAVYYCARYYYRNDDYGMDYWGQGTSVTVSSGGGGSGGGGXGGGGSGGGGSEIHMTQTTSSLSASLGDRVTISCSASQDIRNYLNWYQQKPDGTVKLLIYYTSTLHSGVPSRFSGSGSGTDYSLTISNLEPEDIATYYCQQYSKIPYTFTGGTKLEIKRADAAEQKLISEEDLNSAVDHHHHHH
modifications: p-acetyl-phenylalanine (pAcF) in place of Ser131, conjugated to mono-functional hydroxylamine 5K PEG
notes: also called Ser131pAcF-5K PEG
B5: scFv-108 Tyr190pAcF (scFv)
scFv: QVQLQQSGAELMKPGASVKISCKATGYTFSSYWIEWVKQRPGHGLEWIGEILPGSKKTNYNEKFKGKATFTADTSSNTAYMQFSSLTSEDSAVYYCARYYYRNDDYGMDYWGQGTSVTVSSGGGGSGGGGSGGGGSGGGGSEIHMTQTTSSLSASLGDRVTISCSASQDIRNYLNWYQQKPDGTVKLLIXYTSTLHSGVPSRFSGSGSGTDYSLTISNLEPEDIATYYCQQYSKIPYTFTGGTKLEIKRADAAEQKLISEEDLNSAVDHHHHHH
modifications: p-acetyl-phenylalanine (pAcF) in place of Tyr190
notes: X stands for pAcF
B6: pAcF-scFv-108-(L156) conjugated to 5K PEG (scFv)
scFv: QVQLQQSGAELMKPGASVKISCKATGYTFSSYWIEWVKQRPGHGLEWIGEILPGSKKTNYNEKFKGKATFTADTSSNTAYMQFSSLTSEDSAVYYCARYYYRNDDYGMDYWGQGTSVTVSSGGGGSGGGGSGGGGSGGGGSEIHMTQTTSSLSASXGDRVTISCSASQDIRNYLNWYQQKPDGTVKLLIYYTSTLHSGVPSRFSGSGSGTDYSLTISNLEPEDIATYYCQQYSKIPYTFTGGTKLEIKRADAAEQKLISEEDLNSAVDHHHHHH
modifications: p-acetyl-phenylalanine (pAcF) in place of Leu156, conjugated to mono-functional hydroxylamine 5K PEG
notes: also called Leu156pAcF-5K PEG
B7: scFv-108 Ser259pAcF (scFv)
scFv: QVQLQQSGAELMKPGASVKISCKATGYTFSSYWIEWVKQRPGHGLEWIGEILPGSKKTNYNEKFKGKATFTADTSSNTAYMQFSSLTSEDSAVYYCARYYYRNDDYGMDYWGQGTSVTVSSGGGGSGGGGSGGGGSGGGGSEIHMTQTTSSLSASLGDRVTISCSASQDIRNYLNWYQQKPDGTVKLLIYYTSTLHSGVPSRFSGSGSGTDYSLTISNLEPEDIATYYCQQYSKIPYTFTGGTKLEIKRADAAEQKLIXEEDLNSAVDHHHHHH
modifications: p-acetyl-phenylalanine (pAcF) in place of Ser259
notes: X stands for pAcF
B8: scFv-108 Lys248pAcF (scFv)
scFv: QVQLQQSGAELMKPGASVKISCKATGYTFSSYWIEWVKQRPGHGLEWIGEILPGSKKTNYNEKFKGKATFTADTSSNTAYMQFSSLTSEDSAVYYCARYYYRNDDYGMDYWGQGTSVTVSSGGGGSGGGGSGGGGSGGGGSEIHMTQTTSSLSASLGDRVTISCSASQDIRNYLNWYQQKPDGTVKLLIYYTSTLHSGVPSRFSGSGSGTDYSLTISNLEPEDIATYYCQQYSKIPYTFTGGTKLEIXRADAAEQKLISEEDLNSAVDHHHHHH
modifications: p-acetyl-phenylalanine (pAcF) in place of Lys248
notes: X stands for pAcF
B9: scFv-108 Ser193pAcF (scFv)
scFv: QVQLQQSGAELMKPGASVKISCKATGYTFSSYWIEWVKQRPGHGLEWIGEILPGSKKTNYNEKFKGKATFTADTSSNTAYMQFSSLTSEDSAVYYCARYYYRNDDYGMDYWGQGTSVTVSSGGGGSGGGGSGGGGSGGGGSEIHMTQTTSSLSASLGDRVTISCSASQDIRNYLNWYQQKPDGTVKLLIYYTXTLHSGVPSRFSGSGSGTDYSLTISNLEPEDIATYYCQQYSKIPYTFTGGTKLEIKRADAAEQKLISEEDLNSAVDHHHHHH
modifications: p-acetyl-phenylalanine (pAcF) in place of Ser193
notes: X stands for pAcF
B10: scFv-108 His144pAcF (scFv)
scFv: QVQLQQSGAELMKPGASVKISCKATGYTFSSYWIEWVKQRPGHGLEWIGEILPGSKKTNYNEKFKGKATFTADTSSNTAYMQFSSLTSEDSAVYYCARYYYRNDDYGMDYWGQGTSVTVSSGGGGSGGGGSGGGGSGGGGSEIXMTQTTSSLSASLGDRVTISCSASQDIRNYLNWYQQKPDGTVKLLIYYTSTLHSGVPSRFSGSGSGTDYSLTISNLEPEDIATYYCQQYSKIPYTFTGGTKLEIKRADAAEQKLISEEDLNSAVDHHHHHH
modifications: p-acetyl-phenylalanine (pAcF) in place of His144
notes: X stands for pAcF
B11: pAcF-scFv-108-(S131) (scFv)
scFv: QVQLQQSGAELMKPGASVKISCKATGYTFSSYWIEWVKQRPGHGLEWIGEILPGSKKTNYNEKFKGKATFTADTSSNTAYMQFSSLTSEDSAVYYCARYYYRNDDYGMDYWGQGTSVTVSSGGGGSGGGGXGGGGSGGGGSEIHMTQTTSSLSASLGDRVTISCSASQDIRNYLNWYQQKPDGTVKLLIYYTSTLHSGVPSRFSGSGSGTDYSLTISNLEPEDIATYYCQQYSKIPYTFTGGTKLEIKRADAAEQKLISEEDLNSAVDHHHHHH
modifications: p-acetyl-phenylalanine (pAcF) in place of Ser131
notes: S131 is the second serine of the GlySer linker; X stands for pAcF; also called Ser131pAcF; S131Am
B12: pAcF-scFv-108-(S136) conjugated to 5K PEG (scFv)
scFv: QVQLQQSGAELMKPGASVKISCKATGYTFSSYWIEWVKQRPGHGLEWIGEILPGSKKTNYNEKFKGKATFTADTSSNTAYMQFSSLTSEDSAVYYCARYYYRNDDYGMDYWGQGTSVTVSSGGGGSGGGGSGGGGXGGGGSEIHMTQTTSSLSASLGDRVTISCSASQDIRNYLNWYQQKPDGTVKLLIYYTSTLHSGVPSRFSGSGSGTDYSLTISNLEPEDIATYYCQQYSKIPYTFTGGTKLEIKRADAAEQKLISEEDLNSAVDHHHHHH
modifications: p-acetyl-phenylalanine (pAcF) in place of Ser136, conjugated to mono-functional hydroxylamine 5K PEG
notes: also called Ser136pAcF-5K PEG
B13: Fab-108 wild type (Fab)
light: TMELEIHMTQTTSSLSASLGDRVTISCSASQDIRNYLNWYQQKPDGTVKLLIYYTSTLHSGVPSRFSGSGSGTDYSLTISNLEPEDIATYYCQQYSKIPYTFTGGTKLEIKRADAAKLEIKRTVAAPSVFIFPPSDEQLKSGTASVVCLLNNFYPREAKVQWKVDNALQSGNSQESVTEQDSKDSTYSLSSTLTLSKADYEKHKVYACEVTHQGLSSPVTKSFNRGEC
heavy: QVQLLEQVQLQQSGAELMKPGASVKISCKATGYTFSSYWIEWVKQRPGHGLEWIGEILPGSKKTNYNEKFKGKATFTADTSSNTAYMQFSSLTSEDSAVYYCARYYYRNDDYGMDYWGQGTSVTVSSAGPSVFPLAPSSKSTSGGTAALGCLVKDYFPEPVTVSWNSGALTSGVHTFPAVLQSSGLYSLSSVVTVPSSSLGTQTYICNVNHKPSNTKVDKKVEPKSCDKHHHHHH
notes: they may include leaders; also called WT Fab; Fab108 WT

Target: T1, EGF receptor (on A431 cells) (UniProt P00533 25-1210, limits assumed)
T1 construct: whole, on cells; also called EGF receptors
Assay: competition flow cytometry on A431 cells against mAb-108 (7.5 nM)
Procedure: (§1) Unbound scFv proteins were removed by washing following centrifugation (repeated 2-3 times). […] After two washes, the cells were incubated with an APC-labeled (allophycocyanin) anti-mouse antibody (10 ug/ml) for 30 minutes on ice. After washing the cells two times to remove the secondary antibody, the cells were re-suspended in FACS buffer supplemented with propidium iodine (0.5 ug/ml), and analyzed by flow cytometry. […] Fab binding was detected using an anti-His antibody followed by an APC-labeled anti-mouse secondary antibody.
(§2) Cells were incubated with the scFv proteins at various concentrations after washing to remove unbound scFv's, and the cells were treated with the mAb108 as described above. All proteins were expressed in the periplasm. Table 11 summarizes the binding of the modified scFv's (pAcF and pAcF with PEG) relative to the wild type scFv: […]

Binder | IC50 relative to wild type scFv | IC50
B1 | 1.6 x | 
B2 | 1.8 x | 
B3 | 1 x | 8.1 nM
B4 | 5 x | 
B5 | 2.1 x | 
B6 | 2.9 x | 
B7 | 0.5 x | 
B8 | 2.1 x | 
B9 | 1.8 x | 
B10 | 2.6 x | 
B11 | 1.3 x | 
B12 | 6.3 x | 

Target: T1, EGF receptor (on A431 cells)
Assay: flow cytometry on A431 cells; Fab detected with anti-His antibody and APC-labeled anti-mouse antibody
Procedure: as §1
PEGylation of the Fab fragments results in a minimal decrease in the affinity of the fragments to the EGF receptors. Binding conditions were as described previously.

Binder | EC50 | EC50 relative to wild type Fab
B13 | 4 nM | 1 x

Target: T1, EGF receptor (on A431 cells)
Assay: Flow cytometry competition on A431 cells expressing EGF receptors: cells incubated with the scFv at varied concentration and washed, then mAb108 (competitor, 7.5 nM) detected with APC-labeled anti-mouse antibody; y axis Median
Procedure: as §1, §2

Binder | IC50
B1 | 13.1 nM
B12 | 51 nM
